In patent publication US20140087995A1 (published 2014):
Numbered stars: 1 amine (or outer) side, 2 acyl side, 3 side chain; on linkers, the order of the positions; unused ones are H or OH. Bridge positions count the residues as written; N and C are the ends. Side chains are listed from the residue outwards. Ends that are not written are not given here. * marks the point of attachment. C20 diacid = O=C(O)CCCCCCCCCCCCCCCCCCC(=O)*; C18 diacid = O=C(O)CCCCCCCCCCCCCCCCC(=O)*; C16 diacid = O=C(O)CCCCCCCCCCCCCCC(=O)*; γGlu = O=C(O)[C@H](CCC(=O)[*:2])N[*:1]; C14 diacid = O=C(O)CCCCCCCCCCCCC(=O)*

B1: N^ε1-[(4S)-4-carboxy-4-(13-carboxytridecanoylamino)butanoyl]-[Arg17,Pro21,Pro27,His34]-h-amylin (peptide)
peptide: K([γGlu-C14 diacid])CNTATCATQRLANFLRHSSPNFGAIPSSTNVGHNTY-NH2
modifications: disulfide 2-7; N-terminus assumed
SMILES: CC[C@H](C)[C@H](NC(=O)[C@H](C)NC(=O)CNC(=O)[C@H](Cc1ccccc1)NC(=O)[C@H](CC(N)=O)NC(=O)[C@@H]1CCCN1C(=O)[C@H](CO)NC(=O)[C@H](CO)NC(=O)[C@H](Cc1c[nH]cn1)NC(=O)[C@H](CCCNC(=N)N)NC(=O)[C@H](CC(C)C)NC(=O)[C@H](Cc1ccccc1)NC(=O)[C@H](CC(N)=O)NC(=O)[C@H](C)NC(=O)[C@H](CC(C)C)NC(=O)[C@H](CCCNC(=N)N)NC(=O)[C@H](CCC(N)=O)NC(=O)[C@@H](NC(=O)[C@H](C)NC(=O)[C@@H]1CSSC[C@H](NC(=O)[C@@H](N)CCCCNC(=O)CC[C@H](NC(=O)CCCCCCCCCCCCC(=O)O)C(=O)O)C(=O)N[C@@H](CC(N)=O)C(=O)N[C@@H]([C@@H](C)O)C(=O)N[C@@H](C)C(=O)N[C@@H]([C@@H](C)O)C(=O)N1)[C@@H](C)O)C(=O)N1CCC[C@H]1C(=O)N[C@@H](CO)C(=O)N[C@@H](CO)C(=O)N[C@H](C(=O)N[C@@H](CC(N)=O)C(=O)N[C@H](C(=O)NCC(=O)N[C@@H](Cc1c[nH]cn1)C(=O)N[C@@H](CC(N)=O)C(=O)N[C@H](C(=O)N[C@@H](Cc1ccc(O)cc1)C(N)=O)[C@@H](C)O)C(C)C)[C@@H](C)O
B2: N^ε1-[(4S)-4-carboxy-4-(19-carboxynonadecanoylamino)butanoyl]-[Ala14,Arg17,Pro21,Pro27,Pro34]-h-amylin (peptide)
peptide: K([γGlu-C20 diacid])CNTATCATQRLAAFLRHSSPNFGAIPSSTNVGPNTY-NH2
modifications: disulfide 2-7; N-terminus assumed
SMILES: CC[C@H](C)[C@H](NC(=O)[C@H](C)NC(=O)CNC(=O)[C@H](Cc1ccccc1)NC(=O)[C@H](CC(N)=O)NC(=O)[C@@H]1CCCN1C(=O)[C@H](CO)NC(=O)[C@H](CO)NC(=O)[C@H](Cc1c[nH]cn1)NC(=O)[C@H](CCCNC(=N)N)NC(=O)[C@H](CC(C)C)NC(=O)[C@H](Cc1ccccc1)NC(=O)[C@H](C)NC(=O)[C@H](C)NC(=O)[C@H](CC(C)C)NC(=O)[C@H](CCCNC(=N)N)NC(=O)[C@H](CCC(N)=O)NC(=O)[C@@H](NC(=O)[C@H](C)NC(=O)[C@@H]1CSSC[C@H](NC(=O)[C@@H](N)CCCCNC(=O)CC[C@H](NC(=O)CCCCCCCCCCCCCCCCCCC(=O)O)C(=O)O)C(=O)N[C@@H](CC(N)=O)C(=O)N[C@@H]([C@@H](C)O)C(=O)N[C@@H](C)C(=O)N[C@@H]([C@@H](C)O)C(=O)N1)[C@@H](C)O)C(=O)N1CCC[C@H]1C(=O)N[C@@H](CO)C(=O)N[C@@H](CO)C(=O)N[C@H](C(=O)N[C@@H](CC(N)=O)C(=O)N[C@H](C(=O)NCC(=O)N1CCC[C@H]1C(=O)N[C@@H](CC(N)=O)C(=O)N[C@H](C(=O)N[C@@H](Cc1ccc(O)cc1)C(N)=O)[C@@H](C)O)C(C)C)[C@@H](C)O
notes: also called compound 94
B3: N^ε1-[(4S)-4-carboxy-4-(15-carboxypentadecanoylamino)butanoyl]-[Arg17,Pro21,Pro27,His34]-h-amylin (peptide)
peptide: K([γGlu-C16 diacid])CNTATCATQRLANFLRHSSPNFGAIPSSTNVGHNTY-NH2
modifications: disulfide 2-7; N-terminus assumed
SMILES: CC[C@H](C)[C@H](NC(=O)[C@H](C)NC(=O)CNC(=O)[C@H](Cc1ccccc1)NC(=O)[C@H](CC(N)=O)NC(=O)[C@@H]1CCCN1C(=O)[C@H](CO)NC(=O)[C@H](CO)NC(=O)[C@H](Cc1c[nH]cn1)NC(=O)[C@H](CCCNC(=N)N)NC(=O)[C@H](CC(C)C)NC(=O)[C@H](Cc1ccccc1)NC(=O)[C@H](CC(N)=O)NC(=O)[C@H](C)NC(=O)[C@H](CC(C)C)NC(=O)[C@H](CCCNC(=N)N)NC(=O)[C@H](CCC(N)=O)NC(=O)[C@@H](NC(=O)[C@H](C)NC(=O)[C@@H]1CSSC[C@H](NC(=O)[C@@H](N)CCCCNC(=O)CC[C@H](NC(=O)CCCCCCCCCCCCCCC(=O)O)C(=O)O)C(=O)N[C@@H](CC(N)=O)C(=O)N[C@@H]([C@@H](C)O)C(=O)N[C@@H](C)C(=O)N[C@@H]([C@@H](C)O)C(=O)N1)[C@@H](C)O)C(=O)N1CCC[C@H]1C(=O)N[C@@H](CO)C(=O)N[C@@H](CO)C(=O)N[C@H](C(=O)N[C@@H](CC(N)=O)C(=O)N[C@H](C(=O)NCC(=O)N[C@@H](Cc1c[nH]cn1)C(=O)N[C@@H](CC(N)=O)C(=O)N[C@H](C(=O)N[C@@H](Cc1ccc(O)cc1)C(N)=O)[C@@H](C)O)C(C)C)[C@@H](C)O
B4: N^ε1-[(4S)-4-carboxy-4-(17-carboxyheptadecanoylamino)butanoyl]-[Arg17,Pro21,Pro27,His34]-h-amylin (peptide)
peptide: K([γGlu-C18 diacid])CNTATCATQRLANFLRHSSPNFGAIPSSTNVGHNTY-NH2
modifications: disulfide 2-7; N-terminus assumed
SMILES: CC[C@H](C)[C@H](NC(=O)[C@H](C)NC(=O)CNC(=O)[C@H](Cc1ccccc1)NC(=O)[C@H](CC(N)=O)NC(=O)[C@@H]1CCCN1C(=O)[C@H](CO)NC(=O)[C@H](CO)NC(=O)[C@H](Cc1c[nH]cn1)NC(=O)[C@H](CCCNC(=N)N)NC(=O)[C@H](CC(C)C)NC(=O)[C@H](Cc1ccccc1)NC(=O)[C@H](CC(N)=O)NC(=O)[C@H](C)NC(=O)[C@H](CC(C)C)NC(=O)[C@H](CCCNC(=N)N)NC(=O)[C@H](CCC(N)=O)NC(=O)[C@@H](NC(=O)[C@H](C)NC(=O)[C@@H]1CSSC[C@H](NC(=O)[C@@H](N)CCCCNC(=O)CC[C@H](NC(=O)CCCCCCCCCCCCCCCCC(=O)O)C(=O)O)C(=O)N[C@@H](CC(N)=O)C(=O)N[C@@H]([C@@H](C)O)C(=O)N[C@@H](C)C(=O)N[C@@H]([C@@H](C)O)C(=O)N1)[C@@H](C)O)C(=O)N1CCC[C@H]1C(=O)N[C@@H](CO)C(=O)N[C@@H](CO)C(=O)N[C@H](C(=O)N[C@@H](CC(N)=O)C(=O)N[C@H](C(=O)NCC(=O)N[C@@H](Cc1c[nH]cn1)C(=O)N[C@@H](CC(N)=O)C(=O)N[C@H](C(=O)N[C@@H](Cc1ccc(O)cc1)C(N)=O)[C@@H](C)O)C(C)C)[C@@H](C)O
B5: N^ε1-[(4S)-4-carboxy-4-(19-carboxynonadecanoylamino)butanoyl]-[Ala14,Arg17,Pro21,Pro27,His34]-h-amylin (peptide)
peptide: K([γGlu-C20 diacid])CNTATCATQRLAAFLRHSSPNFGAIPSSTNVGHNTY-NH2
modifications: disulfide 2-7; N-terminus assumed
SMILES: CC[C@H](C)[C@H](NC(=O)[C@H](C)NC(=O)CNC(=O)[C@H](Cc1ccccc1)NC(=O)[C@H](CC(N)=O)NC(=O)[C@@H]1CCCN1C(=O)[C@H](CO)NC(=O)[C@H](CO)NC(=O)[C@H](Cc1c[nH]cn1)NC(=O)[C@H](CCCNC(=N)N)NC(=O)[C@H](CC(C)C)NC(=O)[C@H](Cc1ccccc1)NC(=O)[C@H](C)NC(=O)[C@H](C)NC(=O)[C@H](CC(C)C)NC(=O)[C@H](CCCNC(=N)N)NC(=O)[C@H](CCC(N)=O)NC(=O)[C@@H](NC(=O)[C@H](C)NC(=O)[C@@H]1CSSC[C@H](NC(=O)[C@@H](N)CCCCNC(=O)CC[C@H](NC(=O)CCCCCCCCCCCCCCCCCCC(=O)O)C(=O)O)C(=O)N[C@@H](CC(N)=O)C(=O)N[C@@H]([C@@H](C)O)C(=O)N[C@@H](C)C(=O)N[C@@H]([C@@H](C)O)C(=O)N1)[C@@H](C)O)C(=O)N1CCC[C@H]1C(=O)N[C@@H](CO)C(=O)N[C@@H](CO)C(=O)N[C@H](C(=O)N[C@@H](CC(N)=O)C(=O)N[C@H](C(=O)NCC(=O)N[C@@H](Cc1c[nH]cn1)C(=O)N[C@@H](CC(N)=O)C(=O)N[C@H](C(=O)N[C@@H](Cc1ccc(O)cc1)C(N)=O)[C@@H](C)O)C(C)C)[C@@H](C)O
notes: also called compound 93
B6: N^ε1-[(4S)-4-carboxy-4-(19-carboxynonadecanoylamino)butanoyl]-[Arg14,Arg17,Pro21,Pro27]-h-amylin (peptide)
peptide: K([γGlu-C20 diacid])CNTATCATQRLARFLRHSSPNFGAIPSSTNVGSNTY-NH2
modifications: disulfide 2-7; N-terminus assumed
SMILES: CC[C@H](C)[C@H](NC(=O)[C@H](C)NC(=O)CNC(=O)[C@H](Cc1ccccc1)NC(=O)[C@H](CC(N)=O)NC(=O)[C@@H]1CCCN1C(=O)[C@H](CO)NC(=O)[C@H](CO)NC(=O)[C@H](Cc1c[nH]cn1)NC(=O)[C@H](CCCNC(=N)N)NC(=O)[C@H](CC(C)C)NC(=O)[C@H](Cc1ccccc1)NC(=O)[C@H](CCCNC(=N)N)NC(=O)[C@H](C)NC(=O)[C@H](CC(C)C)NC(=O)[C@H](CCCNC(=N)N)NC(=O)[C@H](CCC(N)=O)NC(=O)[C@@H](NC(=O)[C@H](C)NC(=O)[C@@H]1CSSC[C@H](NC(=O)[C@@H](N)CCCCNC(=O)CC[C@H](NC(=O)CCCCCCCCCCCCCCCCCCC(=O)O)C(=O)O)C(=O)N[C@@H](CC(N)=O)C(=O)N[C@@H]([C@@H](C)O)C(=O)N[C@@H](C)C(=O)N[C@@H]([C@@H](C)O)C(=O)N1)[C@@H](C)O)C(=O)N1CCC[C@H]1C(=O)N[C@@H](CO)C(=O)N[C@@H](CO)C(=O)N[C@H](C(=O)N[C@@H](CC(N)=O)C(=O)N[C@H](C(=O)NCC(=O)N[C@@H](CO)C(=O)N[C@@H](CC(N)=O)C(=O)N[C@H](C(=O)N[C@@H](Cc1ccc(O)cc1)C(N)=O)[C@@H](C)O)C(C)C)[C@@H](C)O
notes: also called compound 83

These binders were tested against T1, human amylin 3(a) receptor (human calcitonin receptor co-expressed with RAMP-3) (human, UniProt P30988 25-474; O60896 24-148, limits assumed) (assay: cell-based or functional assay).
T1 sequence (looked up) 1: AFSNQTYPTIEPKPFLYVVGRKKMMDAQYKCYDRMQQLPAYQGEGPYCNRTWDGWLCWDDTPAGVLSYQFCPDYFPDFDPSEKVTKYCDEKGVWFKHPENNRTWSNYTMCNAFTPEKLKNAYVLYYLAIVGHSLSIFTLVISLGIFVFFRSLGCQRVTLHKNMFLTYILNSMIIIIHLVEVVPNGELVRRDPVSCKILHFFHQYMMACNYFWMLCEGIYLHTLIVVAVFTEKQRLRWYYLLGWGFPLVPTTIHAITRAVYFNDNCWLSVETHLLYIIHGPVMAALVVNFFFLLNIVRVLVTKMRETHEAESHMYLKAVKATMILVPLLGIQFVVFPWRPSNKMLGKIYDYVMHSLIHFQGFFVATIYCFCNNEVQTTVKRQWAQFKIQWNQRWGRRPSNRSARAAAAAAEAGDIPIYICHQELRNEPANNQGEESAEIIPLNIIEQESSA
T1 sequence (looked up) 2: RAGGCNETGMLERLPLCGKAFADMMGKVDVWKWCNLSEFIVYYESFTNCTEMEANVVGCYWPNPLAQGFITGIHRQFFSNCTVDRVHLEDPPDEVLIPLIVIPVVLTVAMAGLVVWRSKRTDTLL

Going from B1 to B2, the “hAmylin-R funct. EC50” value rises from 0.028 nM to 0.07 nM (2.5-fold).

Compared with B3, B4 is 2.8-fold higher in “hAmylin-R funct. EC50” value: 0.034 nM for the first, 0.096 nM for the second.

Compared with B5, B6 is 3.4-fold higher in “hAmylin-R funct. EC50” value: 0.118 nM for the first, 0.405 nM for the second.

What follows are binders tested against T2, human calcitonin receptor (human, UniProt P30988 25-474) (assay: cell-based or functional assay).
T2 sequence (looked up): T1 sequence (looked up) 1

Going from B1 to B2, the “Ratio hCT/hAmylin funct.” value falls from 38.8 to 4.5.

First: B3
Second: B4
The “Ratio hCT/hAmylin funct.” value of the first is higher: 65.1 for the first, 60.9 for the second.

Compared with B5, B6 is higher in “Ratio hCT/hAmylin funct.” value: 9.7 for the first, 41.6 for the second.

First: B1
Second: B2
The “hCTR funct. EC50” value of the first is 3.4-fold higher: 1.09 nM for the first, 0.316 nM for the second.

Compared with B3, B4 is 2.6-fold higher in “hCTR funct. EC50” value: 2.21 nM for the first, 5.85 nM for the second.

Going from B5 to B6, the “hCTR funct. EC50” value rises from 1.15 nM to 16.8 nM (15-fold).
